Data as given in patent US20240115603A1 (Zymeworks, published 2024).
Residue numbers refer to the chain shown, from its start.

T1: G-CSFR(Ig-CRH)E design 9, purified, tag cleaved (human, UniProt Q99062 26-331)
T1 construct: SPR protein; also called Design 9 G-CSFR(Ig-CRH)E
T1 chain: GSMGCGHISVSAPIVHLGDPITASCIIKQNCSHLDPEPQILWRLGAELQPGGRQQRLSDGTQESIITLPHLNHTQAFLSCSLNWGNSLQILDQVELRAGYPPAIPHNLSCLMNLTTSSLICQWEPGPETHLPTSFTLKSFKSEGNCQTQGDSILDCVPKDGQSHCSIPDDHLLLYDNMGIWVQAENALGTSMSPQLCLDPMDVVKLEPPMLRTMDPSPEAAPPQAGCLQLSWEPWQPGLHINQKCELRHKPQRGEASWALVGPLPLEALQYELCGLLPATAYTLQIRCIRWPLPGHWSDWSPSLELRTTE

T2: WT G-CSFR(Ig-CRH), purified, tag cleaved (human, UniProt Q99062 26-331)
T2 construct: also called G-CSFRWT; wild type G-CSFR ECD
T2 chain: T1 chain with E143R, D169R, D170K, D176Q

T3: G-CSFR(Ig-CRH)E design 30, purified, tag cleaved (human, UniProt Q99062 26-331)
T3 construct: also called Design 30 G-CSFR(Ig-CRH)E
T3 chain: T1 chain with E143R, D170K, D176Q

T4: WT G-CSF, purified, tag cleaved (human, UniProt P09919 31-206)
T4 construct: also called G-CSFWT
T4 sequence: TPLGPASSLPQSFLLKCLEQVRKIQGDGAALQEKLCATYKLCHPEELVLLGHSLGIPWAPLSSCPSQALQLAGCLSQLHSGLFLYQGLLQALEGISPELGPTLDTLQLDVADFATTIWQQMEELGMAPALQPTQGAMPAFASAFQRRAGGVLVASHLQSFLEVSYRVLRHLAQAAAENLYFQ

T5: G-CSFR(Ig-CRH)E design 35, purified, tag cleaved (human, UniProt Q99062 26-331)
T5 construct: SPR protein; also called Design #35 G-CSFR(Ig-CRH)E
T5 chain: T1 chain with D169R, D170K, L173E, D176E

T6: G-CSFR(Ig-CRH)E design 34, purified, tag cleaved (human, UniProt Q99062 26-331)
T6 construct: SPR protein; also called Design 34 G-CSFR(Ig-CRH)E
T6 chain: T1 chain with D170K, D176Q

B1: G-CSFE design 9, purified, tag cleaved (ligand)
chain: T4 sequence with D104R, L108K, D112R, Q119R, E122K
notes: also called Design 9 G-CSFE
B2: G-CSFE design 134, purified, tag cleaved (ligand)
chain: T4 sequence with E46R, L108K, D112R, E122R, E123R
notes: also called Design #134 G-CSFE
B3: G-CSFE design 30, purified, tag cleaved (ligand)
chain: T4 sequence with L108K, D112R
notes: also called Design 30 G-CSFE
B4: G-CSFE design 130 (E46R_L108K_D112R), purified, tag cleaved (ligand)
chain: T4 sequence with E46R, L108K, D112R
notes: also called 130 G-CSF; G-CSF137
B5: G-CSFR(Ig-CRH)E design 134 (R41E_R141E_R167D), purified, tag cleaved (receptor)
chain: T1 chain with R43E, D170K, D176Q
notes: also called Design 134 G-CSFR(Ig-CRH)E; design 137 G-CSFR(Ig-CRH)E
B6: G-CSFR(Ig-CRH)E design 304, purified, tag cleaved (receptor)
chain: T1 chain with R43E, E95K, E143R, D170K, D176Q
notes: SPR protein; also called Design 304 G-CSFR(Ig-CRH)E
B7: G-CSFR(Ig-CRH)E design 401, purified, tag cleaved (receptor)
chain: T1 chain with R43E, E143R, D170K, D176Q, R290D
notes: SPR protein; also called Design 401 G-CSFR(Ig-CRH)E
B8: G-CSFR(Ig-CRH)E design 307, purified, tag cleaved (receptor)
chain: T1 chain with R43E, E143R, D169R, D170K, D176Q, D199K, D202K, R290E
notes: SPR protein; also called Design 307 G-CSFR(Ig-CRH)E
B9: G-CSFR(Ig-CRH)E design 300, purified, tag cleaved (receptor)
chain: T1 chain with F77K, Q93K, E143R, D170K, D176Q
notes: SPR protein; also called Design 300 G-CSFR(Ig-CRH)E
B10: G-CSFR(Ig-CRH)E design 130, purified, tag cleaved (receptor)
chain: T1 chain with R43E, E143R, D170K, D176Q
notes: SPR protein; also called Design 130 G-CSFR(Ig-CRH)E
B11: G-CSFE design 35, purified, tag cleaved (ligand)
chain: T4 sequence with T115K, E122R, E123R
notes: also called Design 35 G-CSFE
B12: G-CSFR(Ig-CRH)E design 303, purified, tag cleaved (receptor)
chain: T1 chain with E95K, E143R, D170K, D176Q
notes: SPR protein; also called Design 303 G-CSFR(Ig-CRH)E
B13: G-CSFR(Ig-CRH)E design 402, purified, tag cleaved (receptor)
chain: T1 chain with R43E, E143R, D169E, D170K, D176E, R290E
notes: SPR protein; also called Design 402 G-CSFR(Ig-CRH)E
B14: G-CSFE design 34, purified, tag cleaved (ligand)
chain: T4 sequence with L108K, D112R, E122R, E123R
notes: also called Design 34 G-CSFE
B15: G-CSFE design 401, purified, tag cleaved (ligand)
chain: T4 sequence with E19K, E46R, L108K, D112R
notes: also called Design 401 G-CSFE
B16: G-CSFE design 117, purified, tag cleaved (ligand)
chain: T4 sequence with E46R, E122R, E123R
notes: also called Design 117 G-CSFE

Assays:
[1] = target: T1, G-CSFR(Ig-CRH)E design 9, purified, tag …; assay: SPR (Biacore T200), G-CSFR(Ig-CRH)E amine-coupled, G-CSFE injected; KD relative to WT:WT control (larger = weaker)
Procedure: (§1) The SPR binding assays were carried out on a Biacore T200 instrument (GE Healthcare, Mississauga, ON, Canada) with PBS-T (PBS+0.05% (v/v) Tween 20) running buffer at a temperature of 25° C. CMS Series S sensor chip, Biacore amine coupling kit (NHS, EDC and 1 M ethanolamine), and 10 mM sodium acetate buffers were all purchased from GE Healthcare. PBS running buffer with 0.05% Tween20 (PBS-T) was purchased from Teknova Inc. (Hollister, CA).
(§2) To determine binding affinity of G-CSFE to G-CSFRE the G-CSFRE mutant was captured by standard amine coupling as described by the manufacturer (GE LifeSciences). Briefly, immediately after EDC/NHS activation, a 5 μg/mL solution of G-CSFRE in 10 mM NaOAc, pH 5.0, was injected at a flow rate of 5 μL/min until a receptor density of ˜700-900 RU was reached. The remaining active groups were quenched by a 420 s injection of 1 M ethanolamine hydrochloride-NaOH pH 8.5 at 10 μL/min. Using single-cycle kinetics, six concentrations of a two-fold dilution series of the corresponding G-CSFE mutant starting at 200 nM with a blank buffer control were sequentially injected at 25 μL/min for 300s with a 1800s dissociation phase, resulting in a set of sensorgrams with a buffer blank reference. The same sample titration was also performed on a reference cell with no variants captured. The chip was regenerated to prepare for the next injection cycle by one pulse of 10 mM glycine/HCl, pH 2.0, for 30 s at 30 μL/min.
(§3) Double-referenced sensorgrams from duplicate or triplicate repeat injections were analyzed using Biacore™ T200 Evaluation Software v3.0 and fit to the 1:1 Langmuir binding model.

[2] = target: T2, WT G-CSFR(Ig-CRH), purified, tag cleaved; assay: SPR (Biacore T200), WT G-CSFR(Ig-CRH) amine-coupled, G-CSFE injected; KD relative to WT:WT control (larger = weaker)
[3] = target: T2, WT G-CSFR(Ig-CRH), purified, tag cleaved; assay: SPR (Biacore T200)
[4] = target: B5; assay: SPR (Biacore T200), G-CSFR(Ig-CRH)E amine-coupled, G-CSFE injected; KD relative to WT:WT control (larger = weaker)
Procedure: as §1, §2, §3

[5] = target: T3, G-CSFR(Ig-CRH)E design 30, purified, …; assay: as above
Procedure: as §1, §2, §3

[6] = target: B10; assay: as above
Procedure: as §1, §2, §3

[7] = target: T2, WT G-CSFR(Ig-CRH), purified, tag cleaved; assay: SPR (Biacore T200), WT G-CSFR(Ig-CRH) amine-coupled
[8] = target: T4, WT G-CSF, purified, tag cleaved; assay: SPR (Biacore T200)
[9] = target: T5, G-CSFR(Ig-CRH)E design 35, purified, …; assay: SPR (Biacore T200), G-CSFR(Ig-CRH)E amine-coupled, G-CSFE injected; KD relative to WT:WT control (larger = weaker)
Procedure: as §1, §2, §3

[10] = target: T6, G-CSFR(Ig-CRH)E design 34, purified, …; assay: as above
Procedure: as §1, §2, §3

[11] = target: B7; assay: SPR (Biacore T200), G-CSFR(Ig-CRH)E amine-coupled, G-CSFE injected; steady-state derived KD relative to steady-state WT:WT KD
Procedure: as §2, §3
Kinetic-derived affinity constants (KD) where obtained by fitting the association and dissociation phases of the curves. […] For the cases in which the kinetic parameters could not be fit an attempt was made to derive a steady state affinity constant.

Binder | KD fold change (vs WT:WT) [2] | binding result [8] | further results
B1 | 79 fold |  | KD fold change (vs WT:WT) [1]: 1.2 fold; fold weaker KD (vs WT:WT) [3]: ≥ 20 fold
B2 | 465 fold |  | KD fold change (vs WT:WT) [4]: 1 fold; fold weaker affinity (vs WT:WT) [3]: ~500 fold
B3 | 20 fold |  | KD fold change (vs WT:WT) [5]: 11 fold; fold weaker KD (vs WT:WT) [3]: ≥ 20 fold
B4 |  |  | KD fold change (vs WT:WT) [4]: 0.3 fold; KD fold change (vs WT:WT) [6]: 0.9 fold; binding result [7]: no binding
B5 |  | no binding | 
B6 |  | no binding | 
B7 |  | no binding | 
B8 |  | no binding | 
B9 |  | no binding | 
B10 |  | no binding | 
B11 | 5 fold |  | KD fold change (vs WT:WT) [9]: 3.3 fold
B12 |  | no binding | 
B13 |  | no binding | 
B14 | 33 fold |  | KD fold change (vs WT:WT) [10]: 5 fold; fold weaker KD (vs WT:WT) [3]: ≥ 20 fold
B15 |  |  | KD fold change (vs WT:WT) [11]: 0.6 fold; binding result [7]: no binding
B16 | 3.4 fold |  | 
